Measurements as given in patent US20160355575A1 (Hoffmann-La Roche, published 2016).
Each block holds one binder with its values, some of them ahead of it.

B1: VHH R3VQ (VHH)
VHH: EVQLQASGGGLVQTGDSLRLSCADSGSTFRNYNIGWFRQTPGQAREFVAAVSRTGISTHVADSLQGRFTISRDNAKNTVYLQMNSLKPEDTAVYSCAAGRPGVGAVNRAMDYDYWGQGTQVTVSS
notes: Alpaca VHH, monomeric; Expressed with a His-tag or a Strep-tag; also called R3VQ(His)-NH2 1; R3VQ-NH2 1; not shown: 6-Histidine tag (vector pET23) or Streptavidin-tag (vector pASK IBA2)

Assays:
Aβ fragment 29-40 = biological target: T1, Aβ fragment 29-40 (human); assay: competitive inhibition ELISA with soluble Aβ fragments
T1 peptide: GAIIGLMVGGVV
Method: (§1) The binding affinity of VHHs was determined as previously described (Friguet B. et al., 1985, Immunol Methods, 77:305-19). Briefly, various concentrations of Aβ peptides (Aβ fragments 1-16, 10-20, 15-25, 22-35 and 29-40) were incubated in solution overnight at 4° C. with a known quantity of VHH until equilibrium was reached. The VHH concentration used was deteimined by preliminary ELISA calibrations. Each mixture (100 μl) was transferred to a well of a microtiter plate previously coated with antigen and was incubated for 20 min at 4° C. The plates were washed with buffer 0.1% Tween 20 in PBS and bound VHHs were detected by adding beta-galactosidase-conjugated goat anti-rabbit Igs (Biosys, Compiegne, France) and 4-methylumbelliferyl […] (Sigma). Fluorescence was read (Fluoroskan, Labsystem, Finland) at 460 nm, after excitation at 355 nm. KD was estimated from the slope of the regression curve obtained by plotting the reciprocal of the fraction of bound antibody versus the reciprocal of the molar concentration of antigen.

Aβ fragment 1-16 = biological target: T2, Aβ fragment 1-16 (human); assay: as above
T2 construct: also called Aβ1-16; Aβ16
T2 peptide: DAEFRHDSGYEVHHQK
Method: as §1

A-beta 42 peptide (Aβ42) = biological target: T3, A-beta 42 peptide (Aβ42) (human); assay: competition ELISA in solution (method of Friguet et al.)
T3 construct: Synthetic peptide (Bachem); on the western blot it ran as monomers, dimers and trimers; also called Aβ1-42; amyloid β peptide 42
T3 sequence (peptide, as listed by the source): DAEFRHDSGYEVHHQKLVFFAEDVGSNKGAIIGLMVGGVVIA

A-beta 40 peptide (Aβ40) = biological target: T4, A-beta 40 peptide (Aβ40) (human, biotinylated when bound to the streptavidin-coated ELISA plate); assay: ELISA on plate-bound Aβ
T4 construct: Aβ42 without the C-terminal amino acids IA; The ELISA methods say A-beta 40 or A-beta 42 (preferably A-beta 40); also called Aβ1-40
T4 sequence (peptide, as listed by the source): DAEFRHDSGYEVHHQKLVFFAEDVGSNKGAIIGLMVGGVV

VHH R3VQ = biological target: B1; assay: competitive inhibition ELISA, soluble peptide against plate-coated Aβ antigen
Method: as §1

- binding in ELISA compared to the original VHH 1 (A-beta 40 peptide (Aβ40)): ~10%
B2: R3VQ(His)-N-(DOTA/Gd) conjugate 2d (VHH)
VHH: EVQLQASGGGLVQTGDSLRLSCADSGSTFRNYNIGWFRQTPGQAREFVAAVSRTGISTHVADSLQGRFTISRDNAKNTVYLQMNSLKPEDTAVYSCAAGRPGVGAVNRAMDYDYWGQGTQVTVSS
modifications: DOTA/Gd randomly on lysine residues; average Gd/protein (1) 2 (3)
notes: Non-site-specific conjugate of R3VQ(His)-NH2 1; not shown: 6-Histidine tag from modified vector pET23

- IC50 (VHH R3VQ): 16 nM
B4: Aβ 16-35 (peptide)
peptide: KLVFFAEDVGSNKGAIIGLM
notes: This fragment is not in the list of fragments said to be tested (1-16, 10-20, 15-25, 22-35, 29-40)

More lines, now with the values behind:

Binder: B1
- binding result (Aβ fragment 29-40): no binding
- binding result (Aβ fragment 1-16): no binding
- Kd (A-beta 42 peptide (Aβ42)): 17 nM

B3: R3VQ(His)-N-(DOTA/Gd) conjugate 2c (VHH)
VHH: EVQLQASGGGLVQTGDSLRLSCADSGSTFRNYNIGWFRQTPGQAREFVAAVSRTGISTHVADSLQGRFTISRDNAKNTVYLQMNSLKPEDTAVYSCAAGRPGVGAVNRAMDYDYWGQGTQVTVSS
modifications: DOTA/Gd randomly on lysine residues; average Gd/protein (1) 2 (3)
notes: as for B2
- binding in ELISA compared to the original VHH 1 (A-beta 40 peptide (Aβ40)): ~10%
